Data on 1 molecule can be found in patent US20030021774A1.

Changes are numbered by the printed parent chain.

Holding throughout (assay): cell-based or functional assay
In assay [1] the target is T1, SAVINASE, subtilisin derived from Bacillus clausii (previously Bacillus lentus NCIB 10309) (Bacillus clausii (previously Bacillus lentus NCIB 10309)) (UniProt P29600).
T1 sequence (looked up): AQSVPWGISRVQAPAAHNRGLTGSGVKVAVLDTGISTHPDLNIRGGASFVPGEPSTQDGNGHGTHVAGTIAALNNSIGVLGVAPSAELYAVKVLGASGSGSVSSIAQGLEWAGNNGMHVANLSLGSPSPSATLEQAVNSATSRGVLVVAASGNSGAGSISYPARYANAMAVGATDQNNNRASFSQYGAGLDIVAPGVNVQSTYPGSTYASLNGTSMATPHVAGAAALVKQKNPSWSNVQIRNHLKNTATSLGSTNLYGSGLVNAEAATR

Assay [2] addresses T2, Sub.Novo(Y217L), mutant of subtilisin from Bacillus amyloliquefaciens (Bacillus amyloliquefaciens) (UniProt P00782).
T2 sequence (looked up): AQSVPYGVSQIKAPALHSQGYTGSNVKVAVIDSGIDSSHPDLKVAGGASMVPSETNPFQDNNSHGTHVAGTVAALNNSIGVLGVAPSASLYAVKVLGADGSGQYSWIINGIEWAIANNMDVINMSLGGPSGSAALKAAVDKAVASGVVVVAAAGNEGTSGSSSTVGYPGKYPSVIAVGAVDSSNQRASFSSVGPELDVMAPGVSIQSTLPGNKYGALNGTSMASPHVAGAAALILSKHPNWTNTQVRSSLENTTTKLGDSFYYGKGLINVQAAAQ

Assay [3] deals with T3, Sub.Novo, subtilisin from Bacillus amyloliquefaciens (Bacillus amyloliquefaciens) (UniProt P00782).
T3 sequence (looked up): T2 sequence (looked up) with L217Y

Assay [4] concerns the target protease derived from Acremonium chrysogenum ATCC 48272 (Acremonium chrysogenum ATCC 48272).
In assay [5] the target is protease derived from Aspergillus sp. CBS 102448.
Assay [6] concerns the target protease derived from Bacillus alcalophilus NCIMB 10438 (Bacillus alcalophilus NCIMB 10438).
Assay [7] has as its target protease derived from Bacillus sp. NCIMB 40484 (Bacillus sp. NCIMB 40484).
The target in assay [8] is protease derived from Fusarium oxysporum IFO 4471 (Fusarium oxysporum IFO 4471).
For assay [9], the target named is protease derived from Paecilomyces lilacinus CBS 102449 (Paecilomyces lilacinus CBS 102449).

Chain of protease derived from Acremonium chrysogenum ATCC 48272 (Acremonium chrysogenum ATCC 48272) (P29118 other isoform, or with tags, fused parts or gaps): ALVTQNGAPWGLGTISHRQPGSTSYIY

B1: Streptomyces Subtilisin Inhibitor (SSI) (protein, UniProt P01006 32-144, looked up)
chain: DAPSALYAPSALVLTVGKGVSATTAAPERAVTLTCAPGPSGTHPAAGSACADLAAVGGDLNALTRGEDVMCPMVYDPVLLTVDGVWQGKRVSYERVFSNECEMNAHGSSVFAF
As for B1, the Residual activity (%) on Suc-AAPF-pNA after incubation with SSI in [1] was 0%; in assay [2] it was 0%; in [3], 0.1%; in assay [4] it was 0.1%; in [5] it was 0.1%; in assay [6], 0%. Further, the Residual activity (%) on Suc-AAPF-pNA after incubation with SSI in assay [7] amounted to 4.3%; in assay [8], 0.1%; in [9] it was 0.1%.
